Reference: patent US20240150490A1 (MABPRO A S, published 2024)
Positions count from the first letter of the chain named.

B1: CA9hu-1_HC4LC4 (antibody, V domains shown)
VH: EVQLVESGGGLVQPGGSLRLSCAASGFTFTDYYMHWVRQAPGRGLEWVAFIRNKASGYTPQYSASVKGRFTISRDNAENSLYLQMNSLRAEDTAVYYCVRGGHAGSNYWYFDVWGKGTTVTVSS
VL: DIQMTQSPSSLSASVGDRVTINCHVSQNINVWLSWYQQKPGEAPKLLIYQASNLHTGVPSRFSGSGSGTGFTLTIRSLQPEDYATYYCQQGQSYPFTFGQGTKLEIK
notes: Humanized from murine VII/20; also called HC4LC4 (CA9hu-1)
B2: CA9hu-1 chimeric HC0LC0 (antibody, V domains shown)
VH: EVKLVESGGGLVQPGGSLRLSCATSGFTFTDYYMHWVRQPPGMALEWLAFIRNKASGYTPQYSASVKGRFTISRDVSQTILYLQMNTLRPEDSATYYCVRGGHAGSNYWYFDVWGAGTTVTVSS
VL: DIQMNQSPSSLSASLGDTITIACHVSQNINVWLSWYQQKPGNIPKLLIYQASNLHTGVPSRFTGSGSGTGFTLTISSLQPEDIATYYCQQGQSYPFTFGSGTKLEIK
notes: also called HC0LC0 (CA9hu-1); chimeric variant
B3: CA9hu-1_HC3LC2 (antibody, V domains shown)
VH: QVQLVQSGGGLVQPGRSLRLSCTASGFTFTDYYMHWVRQAPGKGLEWVGFIRNKASGYTPQYSASVKGRFTISRDDSKTIAYLQMNSLKTEDTAVYYCVRGGHAGSNYWYFDVWGQGTLVTVSS
VL: B1 VL with S10T, N22T, E42N, G70E, R76G, E81D, Y83F, A84V, L104V
notes: Humanized from murine VII/20; also called HC3LC2 (CA9hu-1)
B4: CA9hu-1_HC4LC2 (antibody, V domains shown)
VH: B1 VH
VL: B1 VL with S10T, N22T, E42N, G70E, R76G, E81D, Y83F, A84V, L104V
notes: Humanized from murine VII/20; also called HC4LC2 (CA9hu-1)
B5: CA9hu-1_HC3LC1 (antibody, V domains shown)
VH: B3 VH
VL: B1 VL with N22T, E42K, K45N, G70H, R76S, Y83I, Q100G, L104V
notes: Humanized from murine VII/20; also called HC3LC1 (CA9hu-1)
B6: CA9hu-1_HC4LC1 (antibody, V domains shown)
VH: B1 VH
VL: B1 VL with N22T, E42K, K45N, G70H, R76S, Y83I, Q100G, L104V
notes: Humanized from murine VII/20; also called HC4LC1 (CA9hu-1)
B7: CA9hu-1_HC5LC5 (antibody, V domains shown)
VH: B3 VH with Q1E, Q6E, R16G, T23A, T79N, I80S, A81L, L119M
VL: B1 VL with N22T, E42K, G70D, L73F, R76S, Y83I
notes: Humanized from murine VII/20; also called HC5LC5 (CA9hu-1)
B8: CA9hu-1_HC5LC2 (antibody, V domains shown)
VH: B3 VH with Q1E, Q6E, R16G, T23A, T79N, I80S, A81L, L119M
VL: B1 VL with S10T, N22T, E42N, G70E, R76G, E81D, Y83F, A84V, L104V
notes: Humanized from murine VII/20; also called HC5LC2 (CA9hu-1)
B9: CA9hu-1_HC5LC4 (antibody, V domains shown)
VH: B3 VH with Q1E, Q6E, R16G, T23A, T79N, I80S, A81L, L119M
VL: B1 VL
notes: Humanized from murine VII/20; also called HC5LC4 (CA9hu-1)

These binders were tested against CA IX expressed by cells (C-33a_CA IX transfectants; hypoxic BT-20, JIMT-1, 8-MG-BA and 42-MG-BA cells) (human, UniProt Q16790 38-459) (assay: cell-based or functional assay).
B1 was tested, and the “ADCC reporter activity, induction over no Ab, BT-20 cells” value was greater than 25 fold.

Each binder was assayed against recombinant human CA IX (human, UniProt Q16790 38-414) (assay: SPR (Biacore 2000), antibody captured on CM5 chip, rh CA IX in flow, 25 C).
Procedure: In order to determinate the antigen-binding affinity of humanized variants, measurements of affinity constant (KD) for antibodies binding to CA IX were performed by SPR using a Biacore 2000 (T200 in case of CA9hu-2) instrument (GE Healthcare, Piscataway, NJ USA). Each humanized antibody variant was captured on the CM5 sensor chip and recombinant human CA IX (rh CA IX; 42 kDa; R&D Systems, Inc., Minneapolis MN, USA) protein as an antigen was added to the buffer flowing over the chip. The setting details of quantitative interaction analysis between humanized antibodies and rh CA IX were as follows: flow rate 30 μl/min; analysis temperature 25° C.; analysis buffer (10mM HEPES pH 7.4, 150 mM NaCl, […], 0.05% Tween 20). Results from SPR analysis are expressed as the equilibrium dissociation constant (KD) (Table 7).
In the case of B2, the Kd is reported as 22 nM. In the case of B1, the Kd is reported as 15.2 nM. For B3, the Kd was 81 nM. Work on B4 yielded a Kd of 9.1 nM. B5 was tested, and the Kd was 91 nM. B6 showed a Kd of 15.2 nM. In the case of B7, the Kd is reported as 64 nM. Binder B8 has a Kd of 52 nM. B9 was tested, and the Kd was 54 nM.
